Reference: publication PMC3618615 (Nature structural & molecular biology, 2013)

Target: T1, EYA2 Eya domain (EYA2ED) (human, UniProt O00167-1 253-538)
T1 sequence: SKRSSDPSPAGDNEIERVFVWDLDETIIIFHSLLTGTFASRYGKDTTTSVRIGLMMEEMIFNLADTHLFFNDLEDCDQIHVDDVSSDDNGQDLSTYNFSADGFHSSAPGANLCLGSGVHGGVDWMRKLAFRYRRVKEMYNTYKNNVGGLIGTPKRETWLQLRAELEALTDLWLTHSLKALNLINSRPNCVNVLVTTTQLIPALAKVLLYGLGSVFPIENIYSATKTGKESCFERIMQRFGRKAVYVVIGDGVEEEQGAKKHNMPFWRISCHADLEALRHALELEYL
Assay: crystal structure

- binding result: binds
B1: MBP-SIX1 (human SIX1 residues 1-189 fused to MBP_B) (domain or fragment, UniProt Q15475 1-189, looked up)
chain: MSMLPSFGFTQEQVACVCEVLQQGGNLERLGRFLWSLPACDHLHKNESVLKAKAVVAFHRGNFRELYKILESHQFSPHNHPKLQQLWLKAHYVEAEKLRGRPLGAVGKYRVRRKFPLPRTIWDGEETSYCFKEKSRGVLREWYAHNPYPSPREKRELAEATGLTTTQVSNWFKNRRQRDRAAEAKEREN
